Data set [1] deals with CNC(Cc1ccc(O)c(O)c1)C(=O)O. In words: steady-state oxygen depletion, oxygen sensor. Particulars: pH 7.6, 25 °C, 100 mM Tris/HCl, 150 mM NaCl, air-saturated (O2 co-substrate). Format: biochemical, Aspergillus fumigatus. From the text:
(§1) steady-state oxygen depletion, oxygen sensor on FsqB

Data set [2] deals with CNC(Cc1cccc(O)c1)C(=O)O. In words: steady-state oxygen depletion, oxygen sensor. The data set is classed as biochemical, Aspergillus fumigatus. Particulars: pH 7.6, 25 °C, 100 mM Tris/HCl, 150 mM NaCl, air-saturated (O2 co-substrate), error ± 0.6.
Excerpt: as §1

Data set [3] has as its system CN[C@@H](Cc1ccc(O)c(O)c1)C(=O)O. In words: steady-state oxygen depletion, oxygen sensor. The data set is classed as biochemical, Aspergillus fumigatus. Particulars: pH 7.6, 25 °C, 100 mM Tris/HCl, 150 mM NaCl, air-saturated (O2 co-substrate).
Excerpt: as §1

Data set [4] concerns CN[C@@H](Cc1ccc(O)cc1)C(=O)O. In words: steady-state oxygen depletion, oxygen sensor. The data set is classed as biochemical, Aspergillus fumigatus. Particulars: pH 7.6, 25 °C, 100 mM Tris/HCl, 150 mM NaCl, air-saturated (O2 co-substrate).
Excerpt: as §1

Data set [5] concerns the molecule itself. In words: crystal structure; hexagonal crystals (P6522), one chain in the asymmetric unit; dimer with a symmetry-related molecule by a crystallographic 2-fold axis, analysed with the EBI-Pisa server; 2.6 A.

For the molecule FsqB (Aspergillus fumigatus Af293), the Km in data set [1] stood at 160 ± 10 µM; in data set [2], 1600 ± 200 µM; in data set [3], 270 ± 20 µM; in data set [4], 2100 ± 200 µM. Further, the kcat was found to be 8.5 ± 0.1 s⁻¹ in data set [1], 3.5 ± 0.1 s⁻¹ in data set [2], 8.2 ± 0.2 s⁻¹ in data set [3] and 3.9 ± 0.2 s⁻¹ in data set [4]. In addition, the kcat/Km was 53000 ± 4000 M⁻¹ s⁻¹ in data set [1], 2180 ± 40 M⁻¹ s⁻¹ in data set [2], 30000 ± 3000 M⁻¹ s⁻¹ in data set [3] and 1910 ± 20 M⁻¹ s⁻¹ in data set [4].

B1: FsqB (fumisoquin biosynthesis gene B product), flavoprotein of the amine oxidase family (enzyme, Aspergillus fumigatus)
chain: MSIPNSFIIVGSGVFGLSLAYALSLDDRFADKKIILVDRWNFEPPNATGSVHNPAAANADTSRVIRRDYPHGPYASLALEAMKHWRGKFGENNRYVNQRLLFSGEGSSLTTPPKALETVNYIKKAYAISCELTPGGRDAVQVLDSLDEVRAFLGNTPSHPPHLPVNKDPAARDLRGYVSNDCGWADAGASIEWLRQEVLRLGRVECVVGEVESLVYSDDQRAVKGVKLVDGKVLTAELTVIAAGARSSHILGIPKLCDVYSEFVAYIQLTKEEADELRRRQWPILVNCHRGVFAVGPDHDNCLKFGHFSYSGIVDVLREASIQVPTRPDGWEAQQKYWSDPRFAFGGEVKVSALGDVDDYENPAAQRALADYRLFLLELLGPTGLQGVDTLGLDQSDNLLNNIANRPFTRVRKCWYNDTPALDFVVDYHPSYGKTLFVATGGCDHAFKFLPIIGEKTLALILRNRGDSAVSLPAGVEPSLEELSELWRFPVELLQDN
modifications: FAD covalently bound through its 8alpha-methyl group to Cys-414
notes: FsqB of Aspergillus fumigatus, gene Afu6g03440, codon-optimized synthetic gene in pET21a; the domains described in the structure span residues 1-496; Molecular mass printed as 55 kDa; Dimer generated by a crystallographic 2-fold axis; one chain in the asymmetric unit; also called WT FsqB; Afu6g03440
With B1, in data set [5], the binding result was “binds”.

By Km is commonly meant the substrate concentration at which the rate is half of its maximum. Broadly, the kcat is the number of substrate molecules converted per active site and unit of time at saturation. As a reminder, the kcat/Km is the second-order rate constant that governs catalysis at low substrate concentration.

Values taken from article PMC6222107 (The Journal of Biological Chemistry, 2018).
